Source: article PMC9482650, “Quantitative fragmentomics allow affinity mapping of interactomes” (Nature Communications, 2022)

Tests used:
Test in all cases: holdup assay
Design in all cases: key: below the threshold = too weak to quantify, mostly under pKd 3.1 to 4
[1] = molecular target: T1, APBA3_1, O96018
T1 sequence (O96018 389-490, limits assumed, looked up): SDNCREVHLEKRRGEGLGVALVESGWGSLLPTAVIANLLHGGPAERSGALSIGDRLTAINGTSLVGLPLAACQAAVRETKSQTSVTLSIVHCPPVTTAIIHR

[2] = molecular target: T2, CARD11, Q9BXL7
T2 sequence (Q9BXL7 662-765, limits assumed, looked up): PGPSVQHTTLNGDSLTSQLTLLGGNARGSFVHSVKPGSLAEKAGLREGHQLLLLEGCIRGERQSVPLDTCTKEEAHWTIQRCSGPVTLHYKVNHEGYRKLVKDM

[3] = molecular target: DLG1_2, Q12959
[4] = molecular target: DLG2_2, Q15700
[5] = molecular target: FRMPD2_3, Q68DX3
[6] = molecular target: GIPC2, Q8TF65
[7] = molecular target: T3, GRIP1_2, Q9Y3R0
T3 sequence (Q9Y3R0 145-248, limits assumed, looked up): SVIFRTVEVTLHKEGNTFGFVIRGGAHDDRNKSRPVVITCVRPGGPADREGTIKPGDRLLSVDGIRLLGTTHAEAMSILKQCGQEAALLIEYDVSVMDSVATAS

[8] = molecular target: T4, GRIP1_4, Q9Y3R0
T4 sequence (Q9Y3R0 467-571, limits assumed, looked up): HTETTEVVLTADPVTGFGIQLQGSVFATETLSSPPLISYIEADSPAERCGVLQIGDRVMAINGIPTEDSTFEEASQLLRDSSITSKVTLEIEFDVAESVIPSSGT

[9] = molecular target: T5, GRIP1_5, Q9Y3R0
T5 sequence (Q9Y3R0 568-668, limits assumed, looked up): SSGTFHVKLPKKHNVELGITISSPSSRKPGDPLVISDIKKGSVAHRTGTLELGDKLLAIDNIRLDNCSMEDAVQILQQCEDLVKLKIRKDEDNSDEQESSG

[10] = molecular target: GRIP2_6, Q9C0E4
[11] = molecular target: GRIP2_7, Q9C0E4
[12] = molecular target: Inadl_6, Q8NI35
[13] = molecular target: Inadl_8, Q8NI35
[14] = molecular target: T6, LIN7A, O14910
T6 sequence (O14910 103-200, limits assumed, looked up): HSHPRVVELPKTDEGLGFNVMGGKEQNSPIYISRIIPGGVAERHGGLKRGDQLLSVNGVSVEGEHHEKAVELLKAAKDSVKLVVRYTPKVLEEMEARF

[15] = molecular target: T7, LIN7B, Q9HAP6
T7 sequence (Q9HAP6 88-185, limits assumed, looked up): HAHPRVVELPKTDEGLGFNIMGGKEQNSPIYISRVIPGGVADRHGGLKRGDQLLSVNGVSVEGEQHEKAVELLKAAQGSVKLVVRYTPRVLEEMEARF

[16] = molecular target: LNX1_2, Q8TBB1
[17] = molecular target: MAGI1_1, Q96QZ7
[18] = molecular target: MAGI2_2, Q86UL8
[19] = molecular target: MAGI2_6, Q86UL8
[20] = molecular target: T8, MPDZ_10, O75970
T8 sequence (O75970 1624-1722, limits assumed, looked up): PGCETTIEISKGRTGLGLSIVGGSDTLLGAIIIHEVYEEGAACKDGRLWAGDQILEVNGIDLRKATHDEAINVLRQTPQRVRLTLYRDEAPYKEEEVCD

[21] = molecular target: T9, MPDZ_5, O75970
T9 sequence (O75970 695-796, limits assumed, looked up): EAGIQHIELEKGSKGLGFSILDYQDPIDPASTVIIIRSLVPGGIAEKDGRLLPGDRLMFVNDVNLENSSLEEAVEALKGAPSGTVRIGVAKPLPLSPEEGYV

[22] = molecular target: T10, MPP7, Q5T2T1
T10 sequence (Q5T2T1 134-230, limits assumed, looked up): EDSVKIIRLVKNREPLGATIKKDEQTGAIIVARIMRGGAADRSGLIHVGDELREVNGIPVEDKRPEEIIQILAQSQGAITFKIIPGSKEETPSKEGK

[23] = molecular target: NHERF4_2, Q86UT5
[24] = molecular target: T11, PARD3B_1, Q8TEW8
T11 sequence (Q8TEW8 196-299, limits assumed, looked up): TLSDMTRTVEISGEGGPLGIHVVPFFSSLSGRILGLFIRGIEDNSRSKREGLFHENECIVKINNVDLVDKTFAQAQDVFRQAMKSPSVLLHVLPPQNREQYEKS

[25] = molecular target: TJP2_1, Q9UDY2
[26] = plain residues with an end cap or a label only (N-terminal biotin on a linker: ahx)
[27] = plain residues with an end cap or a label only (N-terminal biotin on a linker: ttds)
[28] = plain residues with an end cap or a label only (N-terminal biotin on a linker: ado-ado)

GIPC2, Q8TF65, sequence (Q8TF65 112-203): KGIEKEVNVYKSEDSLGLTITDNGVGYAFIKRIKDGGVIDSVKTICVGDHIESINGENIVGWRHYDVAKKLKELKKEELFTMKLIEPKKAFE
Inadl_6, Q8NI35, sequence (Q8NI35 1058-1167): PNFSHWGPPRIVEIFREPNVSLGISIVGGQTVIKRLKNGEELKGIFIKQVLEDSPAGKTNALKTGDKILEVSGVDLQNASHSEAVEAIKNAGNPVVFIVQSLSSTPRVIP
MAGI1_1, Q96QZ7, sequence (Q96QZ7 1-106): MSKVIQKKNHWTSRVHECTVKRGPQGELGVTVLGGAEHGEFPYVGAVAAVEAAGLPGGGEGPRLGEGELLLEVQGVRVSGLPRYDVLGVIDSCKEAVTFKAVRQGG
MAGI2_6, Q86UL8, sequence (Q86UL8 1141-1229): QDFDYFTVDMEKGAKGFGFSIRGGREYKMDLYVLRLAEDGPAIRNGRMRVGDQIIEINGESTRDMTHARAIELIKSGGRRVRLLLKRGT
FRMPD2_3, Q68DX3, sequence (Q68DX3 1073-1166): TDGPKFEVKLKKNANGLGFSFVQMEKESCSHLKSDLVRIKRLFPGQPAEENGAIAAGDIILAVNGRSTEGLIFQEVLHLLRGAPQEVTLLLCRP
Inadl_8, Q8NI35, sequence (Q8NI35 1425-1530): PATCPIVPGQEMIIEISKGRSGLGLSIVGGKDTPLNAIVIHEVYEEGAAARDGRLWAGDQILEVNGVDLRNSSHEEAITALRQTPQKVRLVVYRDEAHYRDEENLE
DLG1_2, Q12959, sequence (Q12959 314-412): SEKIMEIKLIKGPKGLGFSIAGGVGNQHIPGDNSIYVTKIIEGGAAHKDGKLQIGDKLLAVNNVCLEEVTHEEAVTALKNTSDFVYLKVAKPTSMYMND
GRIP2_6, Q9C0E4, sequence (Q9C0E4 648-740): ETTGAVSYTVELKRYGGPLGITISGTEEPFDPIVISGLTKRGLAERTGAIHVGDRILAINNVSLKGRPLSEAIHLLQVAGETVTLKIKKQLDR
NHERF4_2, Q86UT5, sequence (Q86UT5 220-308): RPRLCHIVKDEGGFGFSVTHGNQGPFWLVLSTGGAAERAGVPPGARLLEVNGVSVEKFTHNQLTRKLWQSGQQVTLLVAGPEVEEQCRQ
TJP2_1, Q9UDY2, sequence (Q9UDY2 24-128): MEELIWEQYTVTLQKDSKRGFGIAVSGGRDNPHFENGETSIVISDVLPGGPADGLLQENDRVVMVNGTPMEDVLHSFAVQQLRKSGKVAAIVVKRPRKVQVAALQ
GRIP2_7, Q9C0E4, sequence (Q9C0E4 934-1023): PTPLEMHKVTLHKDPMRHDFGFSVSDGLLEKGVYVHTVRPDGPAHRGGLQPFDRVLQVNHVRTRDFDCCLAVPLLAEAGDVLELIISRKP
LNX1_2, Q8TBB1, sequence (Q8TBB1 371-470): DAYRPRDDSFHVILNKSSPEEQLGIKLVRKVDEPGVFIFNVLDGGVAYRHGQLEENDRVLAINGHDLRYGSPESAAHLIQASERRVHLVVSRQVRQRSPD
MAGI2_2, Q86UL8, sequence (Q86UL8 410-522): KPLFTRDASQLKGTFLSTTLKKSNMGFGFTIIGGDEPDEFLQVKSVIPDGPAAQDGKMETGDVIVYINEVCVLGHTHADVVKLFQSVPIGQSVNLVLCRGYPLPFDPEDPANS
DLG2_2, Q15700, sequence (Q15700 189-283): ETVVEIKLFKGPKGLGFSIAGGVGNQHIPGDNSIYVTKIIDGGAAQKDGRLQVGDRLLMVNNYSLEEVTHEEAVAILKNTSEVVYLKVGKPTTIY

For VNENQKEYFF [CNTNAP4, Q9C0A0], the pKd [1, 26] was “below the threshold”, the pKd [2, 26] was “below the threshold” and the pKd [3, 26] was “below the threshold”. The pKd [4, 26] was “below the threshold”, the pKd [5, 26] was “below the threshold” and the pKd [6, 26] was “below the threshold”. For the same binder, the pKd [7, 26] was “below the threshold”, the pKd [8, 26] was “below the threshold” and the pKd [9, 26] was “below the threshold”. It also gave a pKd [10, 26] of 5.04, a pKd [11, 26] of 5.77 and a pKd [12, 26] of 3.86. The pKd [13, 26] was “below the threshold”, the pKd [14, 26] was “below the threshold” and the pKd [15, 26] was “below the threshold”. For the same binder, the pKd [16, 26] was “below the threshold”, the pKd [17, 26] was “below the threshold” and the pKd [18, 26] was “below the threshold”. The pKd [19, 26] was 3.51, the pKd [20, 26] was “below the threshold” and the pKd [21, 26] was 4.22. For the same binder, the pKd [22, 26] was 5.02, the pKd [23, 26] was “below the threshold” and the pKd [24, 26] was 4.57. For the same binder, the pKd [25, 26] was “below the threshold”.

With PSRDRKETSI [RALBP1, Q15311] the pKd [1, 27] was “below the threshold”, the pKd [2, 27] was “below the threshold” and the pKd [3, 27] was 4.7. For the same binder, the pKd [4, 27] was 4.29, the pKd [5, 27] was “below the threshold” and the pKd [6, 27] was 3.58. The pKd [7, 27] was 3.45, the pKd [8, 27] was “below the threshold” and the pKd [9, 27] was “below the threshold”. The pKd [10, 27] was 3.36, the pKd [11, 27] was “below the threshold” and the pKd [12, 27] was “below the threshold”. For the same binder, the pKd [13, 27] was “below the threshold”, the pKd [14, 27] was “below the threshold” and the pKd [15, 27] was 3.49. For the same binder, the pKd [16, 27] was “below the threshold”, the pKd [17, 27] was “below the threshold” and the pKd [18, 27] was 4.03. For the same binder, the pKd [19, 27] was “below the threshold”, the pKd [20, 27] was “below the threshold” and the pKd [21, 27] was “below the threshold”. The pKd [22, 27] was “below the threshold”, the pKd [23, 27] was “below the threshold” and the pKd [24, 27] was 3.76. The pKd [25, 27] was “below the threshold”.

EKPIDSETKM [SLC1A3, P43003] was tested, and the pKd [1, 28] was “below the threshold”, the pKd [2, 28] was “below the threshold” and the pKd [3, 28] was “below the threshold”. For the same binder, the pKd [4, 28] was “below the threshold”, the pKd [5, 28] was “below the threshold” and the pKd [6, 28] was “below the threshold”. For the same binder, the pKd [7, 28] was “below the threshold”, the pKd [8, 28] was “below the threshold” and the pKd [9, 28] was “below the threshold”. The pKd [10, 28] was “below the threshold”, the pKd [11, 28] was “below the threshold” and the pKd [12, 28] was “below the threshold”. The pKd [13, 28] was “below the threshold”, the pKd [14, 28] was “below the threshold” and the pKd [15, 28] was “below the threshold”. For the same binder, the pKd [16, 28] was “below the threshold”, the pKd [17, 28] was “below the threshold” and the pKd [18, 28] was “below the threshold”. For the same binder, the pKd [19, 28] was “below the threshold”, the pKd [20, 28] was “below the threshold” and the pKd [21, 28] was “below the threshold”. For the same binder, the pKd [22, 28] was “below the threshold”, the pKd [23, 28] was “below the threshold” and the pKd [24, 28] was “below the threshold”. The pKd [25, 28] was “below the threshold”.

In the case of DAAHHDESNC [FMNL3, Q8IVF7], the pKd [1, 28] is reported as “below the threshold”, the pKd [2, 28] is reported as “below the threshold” and the pKd [3, 28] is reported as “below the threshold”. For the same binder, the pKd [4, 28] was “below the threshold”, the pKd [5, 28] was “below the threshold” and the pKd [6, 28] was 3.68. The pKd [7, 28] was “below the threshold”, the pKd [8, 28] was “below the threshold” and the pKd [9, 28] was “below the threshold”. For the same binder, the pKd [10, 28] was “below the threshold”, the pKd [11, 28] was “below the threshold” and the pKd [12, 28] was “below the threshold”. The pKd [13, 28] was “below the threshold”, the pKd [14, 28] was “below the threshold” and the pKd [15, 28] was “below the threshold”. For the same binder, the pKd [16, 28] was “below the threshold”, the pKd [17, 28] was “below the threshold” and the pKd [18, 28] was “below the threshold”. The pKd [19, 28] was “below the threshold”, the pKd [20, 28] was “below the threshold” and the pKd [21, 28] was “below the threshold”. For the same binder, the pKd [22, 28] was “below the threshold”, the pKd [23, 28] was “below the threshold” and the pKd [24, 28] was “below the threshold”. The pKd [25, 28] was “below the threshold”.

For KEYDDELTFF [USH1C, Q9Y6N9], the pKd [1, 26] was “below the threshold”, the pKd [2, 26] was “below the threshold” and the pKd [3, 26] was “below the threshold”. For the same binder, the pKd [4, 26] was “below the threshold”, the pKd [5, 26] was “below the threshold” and the pKd [6, 26] was “below the threshold”. The pKd [7, 26] was “below the threshold”, the pKd [8, 26] was “below the threshold” and the pKd [9, 26] was “below the threshold”. For the same binder, the pKd [10, 26] was “below the threshold”, the pKd [11, 26] was “below the threshold” and the pKd [12, 26] was 3.71. For the same binder, the pKd [13, 26] was “below the threshold”, the pKd [14, 26] was “below the threshold” and the pKd [15, 26] was “below the threshold”. The pKd [16, 26] was “below the threshold”, the pKd [17, 26] was “below the threshold” and the pKd [18, 26] was “below the threshold”. For the same binder, the pKd [19, 26] was “below the threshold”, the pKd [20, 26] was “below the threshold” and the pKd [21, 26] was “below the threshold”. The pKd [22, 26] was “below the threshold”, the pKd [23, 26] was “below the threshold” and the pKd [24, 26] was 4.52. For the same binder, the pKd [25, 26] was “below the threshold”.
